Source: publication PMC9352680, “A comprehensive thermodynamic model for RNA binding by the Saccharomyces cerevisiae Pumilio protein PUF4”
Where a chain is given by its changes, count along the chain named. Names may count otherwise.

B1: Id_ii_S2_P3E.2_K3.1_C3.2_[C-2G]_[T-1G]_H3.1_A3.1_F3.1_T3.2_[T9A]_[A10G] (ssRNA)
RNA: UUUGAUUAAUAUGAUAUCGUUCUUUCUGGUGUAUAUAAGUUCUUUCUCGAUAUCAUAUUAAUCUUU
B2: Id_ii_S2_P3E.2_K3.1_C3.2_[C-2G]_H3.1_A3.1_F3.1_T3.2_[A10T] (ssRNA)
RNA: B1 RNA with G29U, A38U, G39U
B3: Id_ii_S2_P3E.2_K3.1_C3.2_[C-2G]_[T-1C]_H3.1_A3.1_F3.1_T3.2_[T9C]_[A10G] (ssRNA)
RNA: B1 RNA with G29C, A38C
B4: Id_ii_S2_P3E.2_K3.1_C3.2_[C-2T]_[T-1G]_H3.1_A3.1_F3.1_T3.2_[T9G]_[A10T] (ssRNA)
RNA: B1 RNA with G28U, A38G, G39U
B5: Id_ii_S2_P3E.2_K3.1_C3.2_[C-2G]_[T-1G]_H3.1_A3.1_F3.1_T3.2_[T9A]_[A10T] (ssRNA)
RNA: B1 RNA with G39U
B6: Id_ii_S2_P3E.2_K3.1_C3.2_[C-2T]_[T-1G]_H3.1_A3.1_F3.1_T3.2_[T9C]_[A10C] (ssRNA)
RNA: B1 RNA with G28U, A38C, G39C
B7: Id_ii_S2_P3E.2_K3.1_C3.2_[C-2G]_H3.1_A3.1_F3.1_T3.2_[A10C] (ssRNA)
RNA: B1 RNA with G29U, A38U, G39C
B8: Id_ii_S2_P3E.2_K3.1_C3.2_[C-2T]_[T-1G]_H3.1_A3.1_F3.1_T3.2_[T9G]_[A10C] (ssRNA)
RNA: B1 RNA with G28U, A38G, G39C
B9: Id_ii_S2_P3E.2_K3.1_C3.2_[C-2G]_[T-1C]_H3.1_A3.1_F3.1_T3.2_[A10T] (ssRNA)
RNA: B1 RNA with G29C, A38U, G39U
B10: Id_ii_S2_P3E.2_K3.1_C3.2_[C-2G]_H3.1_A3.1_F3.1_T3.2_[T9C]_[A10C] (ssRNA)
RNA: B1 RNA with G29U, A38C, G39C
B11: Id_ii_S2_P3E.2_K3.1_C3.2_[C-2G]_H3.1_A3.1_F3.1_T3.2_[T9A]_[A10G] (ssRNA)
RNA: B1 RNA with G29U
B12: Id_ii_S2_P3E.2_K3.1_C3.2_[C-2G]_[T-1G]_H3.1_A3.1_F3.1_T3.2_[A10G] (ssRNA)
RNA: B1 RNA with A38U
B13: Id_ii_S2_P3E.2_K3.1_C3.2_[C-2G]_H3.1_A3.1_F3.1_T3.2_[T9C]_[A10T] (ssRNA)
RNA: B1 RNA with G29U, A38C, G39U

molecular target: T1, PUF4 RNA-binding domain (Saccharomyces cerevisiae, UniProt P25339 537-888); test: Mg; RNA-MaP; 20 mM Na-HEPES pH 7.4, 30 mM KOAc, 0.75 mM MgCl2, 0.1% Tween-20, 5% glycerol, 0.1 mg/mL BSA, 2 mM DTT; 25 C; 0.0125-409.6 nM protein; settings: tags: N-His6-TEV cleaved; C-SNAP kept, Cy3B-labelled; label: tethered on chip by stalled RNA polymerase
T1 sequence: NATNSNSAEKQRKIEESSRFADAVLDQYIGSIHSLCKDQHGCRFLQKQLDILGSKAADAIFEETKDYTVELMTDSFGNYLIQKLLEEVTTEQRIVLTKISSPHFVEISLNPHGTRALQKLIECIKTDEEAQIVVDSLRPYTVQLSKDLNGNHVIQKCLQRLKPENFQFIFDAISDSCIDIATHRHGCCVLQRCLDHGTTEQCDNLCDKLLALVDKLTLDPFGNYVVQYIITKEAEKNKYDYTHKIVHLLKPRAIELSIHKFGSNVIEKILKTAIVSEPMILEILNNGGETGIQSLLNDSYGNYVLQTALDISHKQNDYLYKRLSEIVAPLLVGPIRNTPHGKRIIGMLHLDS

Binder | Kd
UCUCUUCGACACUUAUUAACUCUCUU (ssRNA) [Id_ii_S1_P5E.4_K5.3_C5.2_[T-1G]_H5.3_A5.1_F5.1_T5.2_[T11A]_[A12C]] | > 2300 nM
UCUCUUUGUAUUAUCUUCUCUU (ssRNA) [Ic_S1_P5E.1_K5.1_C5.1_H5.1_A5.1_F5.1_[T9C]_[A10T]_T5.1] | 18 nM
UCUCUUCGACACUUAUUAUCUCUCUU (ssRNA) [Id_ii_S1_P5E.4_K5.3_C5.2_[T-1G]_H5.3_A5.1_F5.1_T5.2_[A12C]] | > 2300 nM
UCUCUUAUACACUUAUUACAUCUCUU (ssRNA) [Id_ii_S1_P5E.4_K5.3_C5.2_[C-2A]_H5.3_A5.1_F5.1_T5.2_[T11C]] | 489 nM
B1 | 11.8 nM
B2 | 2.02 nM
B3 | 20.2 nM
B4 | 3.09 nM
B5 | 3.82 nM
B6 | 26.5 nM
B7 | 8.98 nM
B8 | 6.53 nM
B9 | 1.77 nM
B10 | 18 nM
B11 | 7.87 nM
B12 | 5.15 nM
B13 | 44.5 nM
UCUCUUCCACACUUAUUAAAUCUCUU (ssRNA) [Id_ii_S1_P5E.4_K5.3_C5.2_[T-1C]_H5.3_A5.1_F5.1_T5.2_[T11A]] | > 2300 nM
UCUCUUAAACACUUAUUACAUCUCUU (ssRNA) [Id_ii_S1_P5E.4_K5.3_C5.2_[C-2A]_[T-1A]_H5.3_A5.1_F5.1_T5.2_[T11C]] | > 2300 nM
UCUCUUAAACACUUAUUACUUCUCUU (ssRNA) [Id_ii_S1_P5E.4_K5.3_C5.2_[C-2A]_[T-1A]_H5.3_A5.1_F5.1_T5.2_[T11C]_[A12T]] | > 2300 nM
UCUCUUAAACACUUAUUAUUUCUCUU (ssRNA) [Id_ii_S1_P5E.4_K5.3_C5.2_[C-2A]_[T-1A]_H5.3_A5.1_F5.1_T5.2_[A12T]] | > 2300 nM
UCUCUUCCACACUUAUUAACUCUCUU (ssRNA) [Id_ii_S1_P5E.4_K5.3_C5.2_[T-1C]_H5.3_A5.1_F5.1_T5.2_[T11A]_[A12C]] | > 2300 nM
UCUCUUCGACACUUAUUAUUUCUCUU (ssRNA) [Id_ii_S1_P5E.4_K5.3_C5.2_[T-1G]_H5.3_A5.1_F5.1_T5.2_[A12T]] | > 2300 nM
UCUCUUCAACACUUAUUAACUCUCUU (ssRNA) [Id_ii_S1_P5E.4_K5.3_C5.2_[T-1A]_H5.3_A5.1_F5.1_T5.2_[T11A]_[A12C]] | > 2300 nM
UCUCUUCAACACUUAUUAUGUCUCUU (ssRNA) [Id_ii_S1_P5E.4_K5.3_C5.2_[T-1A]_H5.3_A5.1_F5.1_T5.2_[A12G]] | > 2300 nM
UCUCUUUGUAUUAUAGUCUCUU (ssRNA) [Ic_S1_P5E.1_K5.1_C5.1_H5.1_A5.1_F5.1_[T9A]_[A10G]_T5.1] | 0.924 nM
UCUCUUCAACACUUAUUAGCUCUCUU (ssRNA) [Id_ii_S1_P5E.4_K5.3_C5.2_[T-1A]_H5.3_A5.1_F5.1_T5.2_[T11G]_[A12C]] | > 2300 nM
UCUCUUAUACACUUAUUAUAUCUCUU (ssRNA) [Id_ii_S1_P5E.4_K5.3_C5.2_[C-2A]_H5.3_A5.1_F5.1_T5.2] | 330 nM
UCUCUUAAACACUUAUUAACUCUCUU (ssRNA) [Id_ii_S1_P5E.4_K5.3_C5.2_[C-2A]_[T-1A]_H5.3_A5.1_F5.1_T5.2_[T11A]_[A12C]] | > 2300 nM
UCUCUUAUACACUUAUUACGUCUCUU (ssRNA) [Id_ii_S1_P5E.4_K5.3_C5.2_[C-2A]_H5.3_A5.1_F5.1_T5.2_[T11C]_[A12G]] | 907 nM
